Where a chain is given by its changes, count along the chain named.
B1: KIR2DL1-Fc fusion protein (Fc fusion)
chain: HEGVHRKPSLLAHPGRLVKSEETVILQCWSDVMFEHFLLHREGMFNDTLRLIGEHHDGVSKANFSISRMTQDLAGTYRCYGSVTHSPYQVSAPSDPLDIVIIGLYEKPSLSAQLGPTVLAGENVTLSCSSRSSYDMYHLSREGEAHERRLPAGPKVNGTFQADFPLGPATHGGTYRCFGSFHDSPYEWSKSSDPLLVSVTGNPSNSWPSPTEPSSKTGNPRHLH
B2: KIR2DS1-Fc fusion protein (Fc fusion)
chain: B1 chain with T70K, V90L, L114P, P154T, D163N, H182R, K216E

Target: HLA-Cw4-β2m complex refolded with peptide (human | )
Assay: SPR

Binder	Kd [µM]
B1	6
B2	23
